Source: patent EP2017284A1 (INSTITUT PASTEUR, dated 2009)

Target: T1, GST-E2 fusion protein (HPV18 E2) (HPV18, UniProt P06790 1-365)
T1 sequence: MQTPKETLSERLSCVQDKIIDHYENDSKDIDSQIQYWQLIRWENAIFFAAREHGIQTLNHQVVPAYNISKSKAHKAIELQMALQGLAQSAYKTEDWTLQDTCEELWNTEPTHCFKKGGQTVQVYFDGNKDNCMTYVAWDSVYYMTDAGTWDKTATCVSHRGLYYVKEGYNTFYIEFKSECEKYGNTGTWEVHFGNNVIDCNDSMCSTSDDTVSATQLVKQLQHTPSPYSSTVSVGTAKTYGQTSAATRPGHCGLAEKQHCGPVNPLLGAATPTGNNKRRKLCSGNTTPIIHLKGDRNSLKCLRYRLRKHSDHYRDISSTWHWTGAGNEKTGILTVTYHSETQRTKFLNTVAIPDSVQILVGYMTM
Experiment: GST pull-down of 35S in vitro translated protein, autoradiography

B1: caspase 8 catalytic domain (C8 CD) (other)
chain: EFSKERSSSLEGSPDEFSNGEELCGVMTISDSPREQDSESQTLDKVYQMKSKPRGYCLIINNHNFAKAREKVPKLHSIRDRNGTHLDAGALTTTFEELHFEIKPHDDCTVEQIYEILKIYQLMDHSNMDCFICCILSHGDKGIIYGTDGQEAPIYELTSQFTGLKCPSLAGKPKVFFIQACQGDNYQKGIPVETDSEEQPYLEMDLSSPQTRYIPDEADFLLGMATVNNCVSYRNPAEGTWYIQSLCQSLRERCPRGDDILTILTEVNYEVSNKDDKKNMGKQMPQPTFTLRKKLVFPSD
notes: range 180-480; also called caspase catalytic domain
Question: Does B1 bind?
Answer: no binding
